# How the values were obtained:
# Test in all cases: anti-TOX IP from EL4 nuclear extract, LC-MS/MS, MiST
# Snrpb2 = Snrpb2 (UniProt Q9CQI7)
# Eif5b = Eif5b (UniProt Q05D44)
# Rif1 = Rif1 (UniProt Q6PR54)
# Ash2l = Ash2l (UniProt Q91X20)
# Terf2ip = Terf2ip (UniProt Q91VL8)
# Hs2st1 = Hs2st1 (UniProt Q8R3H7)
# Cdk9 = Cdk9 (UniProt Q99J95)
# Dlgap5 = Dlgap5 (UniProt Q8K4R9)
# Aldh18a1 = Aldh18a1 (UniProt Q9Z110)
# Cd2ap = Cd2ap (UniProt Q9JLQ0)
# Metap2 = Metap2 (UniProt O08663)
# Myo6 = Myo6 (UniProt Q64331)
# Safb; Safb2; mKIAA0138 = biological target: Safb; Safb2; mKIAA0138
# Kifc5b; Kifc1 = biological target: Kifc5b; Kifc1
# Dap3 = Dap3 (UniProt Q9ER88)
# Ptcd3 = Ptcd3 (UniProt Q14C51)
# Snx9 = Snx9 (UniProt Q91VH2)
# Ppp1r10 = Ppp1r10 (UniProt Q80W00)
# Rrp1b = Rrp1b (UniProt Q91YK2)
# Dhx30 = Dhx30 (UniProt Q99PU8)
# Sltm = Sltm (UniProt Q8CH25)
# Rpl36a = Rpl36a (UniProt P83882)
# Tpm4 = Tpm4 (UniProt Q6IRU2)
# Pno1 = Pno1 (UniProt Q9CPS7)
# Cdc23 = Cdc23 (UniProt Q8BGZ4)
# Sequence of Ptcd3 (Q14C51 11-685 limits assumed): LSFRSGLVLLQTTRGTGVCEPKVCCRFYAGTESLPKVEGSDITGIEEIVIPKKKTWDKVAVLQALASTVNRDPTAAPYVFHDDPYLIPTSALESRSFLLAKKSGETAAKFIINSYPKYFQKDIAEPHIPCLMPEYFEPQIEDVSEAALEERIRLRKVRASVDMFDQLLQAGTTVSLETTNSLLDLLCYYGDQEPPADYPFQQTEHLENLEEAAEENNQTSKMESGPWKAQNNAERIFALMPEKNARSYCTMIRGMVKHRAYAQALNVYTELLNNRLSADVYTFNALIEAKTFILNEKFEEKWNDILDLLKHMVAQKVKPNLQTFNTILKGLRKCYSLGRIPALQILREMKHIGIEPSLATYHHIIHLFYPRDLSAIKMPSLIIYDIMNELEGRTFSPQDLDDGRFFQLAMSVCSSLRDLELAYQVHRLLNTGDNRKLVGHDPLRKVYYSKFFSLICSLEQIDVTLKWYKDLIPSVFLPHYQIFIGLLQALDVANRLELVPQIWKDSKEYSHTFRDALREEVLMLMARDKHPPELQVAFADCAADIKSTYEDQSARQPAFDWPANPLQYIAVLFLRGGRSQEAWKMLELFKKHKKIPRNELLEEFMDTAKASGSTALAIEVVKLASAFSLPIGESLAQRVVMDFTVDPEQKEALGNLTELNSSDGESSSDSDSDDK
# Sequence of Snx9 (Q91VH2 whole entry): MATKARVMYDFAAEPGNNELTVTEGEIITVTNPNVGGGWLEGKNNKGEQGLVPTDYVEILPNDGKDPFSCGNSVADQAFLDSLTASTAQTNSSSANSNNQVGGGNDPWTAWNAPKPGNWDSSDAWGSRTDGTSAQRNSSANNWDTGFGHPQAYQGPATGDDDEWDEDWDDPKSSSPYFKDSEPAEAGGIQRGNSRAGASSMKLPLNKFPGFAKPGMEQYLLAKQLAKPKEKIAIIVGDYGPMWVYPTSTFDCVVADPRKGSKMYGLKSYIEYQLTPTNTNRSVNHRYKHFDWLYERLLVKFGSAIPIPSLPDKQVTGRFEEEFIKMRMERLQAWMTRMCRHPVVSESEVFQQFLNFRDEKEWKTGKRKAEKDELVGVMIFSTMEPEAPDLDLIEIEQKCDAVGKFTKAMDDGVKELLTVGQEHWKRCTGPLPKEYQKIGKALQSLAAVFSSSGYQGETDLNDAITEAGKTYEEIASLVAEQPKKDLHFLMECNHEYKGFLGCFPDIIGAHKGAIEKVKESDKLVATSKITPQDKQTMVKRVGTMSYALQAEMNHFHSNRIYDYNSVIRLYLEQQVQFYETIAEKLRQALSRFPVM
# Sequence of Rrp1b (Q91YK2 whole entry): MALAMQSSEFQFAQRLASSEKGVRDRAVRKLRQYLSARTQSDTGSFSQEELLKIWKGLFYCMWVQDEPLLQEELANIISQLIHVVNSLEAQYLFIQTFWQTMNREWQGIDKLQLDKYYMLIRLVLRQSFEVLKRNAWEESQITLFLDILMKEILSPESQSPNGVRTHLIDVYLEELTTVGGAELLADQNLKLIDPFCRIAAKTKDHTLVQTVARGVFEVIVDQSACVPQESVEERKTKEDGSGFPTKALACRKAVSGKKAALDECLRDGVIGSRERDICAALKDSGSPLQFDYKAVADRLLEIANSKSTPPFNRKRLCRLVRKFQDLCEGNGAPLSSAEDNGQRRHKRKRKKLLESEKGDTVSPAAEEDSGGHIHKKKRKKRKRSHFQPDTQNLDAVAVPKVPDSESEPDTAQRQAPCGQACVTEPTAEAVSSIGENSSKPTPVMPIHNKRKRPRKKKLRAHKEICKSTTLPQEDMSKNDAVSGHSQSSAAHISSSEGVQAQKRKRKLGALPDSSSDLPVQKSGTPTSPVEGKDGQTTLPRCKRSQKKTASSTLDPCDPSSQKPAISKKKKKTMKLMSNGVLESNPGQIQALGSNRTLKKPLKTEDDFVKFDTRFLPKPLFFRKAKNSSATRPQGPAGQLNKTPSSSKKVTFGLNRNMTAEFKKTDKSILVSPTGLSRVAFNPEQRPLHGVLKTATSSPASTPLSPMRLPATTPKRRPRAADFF
# Sequence of Pno1 (Q9CPS7 whole entry): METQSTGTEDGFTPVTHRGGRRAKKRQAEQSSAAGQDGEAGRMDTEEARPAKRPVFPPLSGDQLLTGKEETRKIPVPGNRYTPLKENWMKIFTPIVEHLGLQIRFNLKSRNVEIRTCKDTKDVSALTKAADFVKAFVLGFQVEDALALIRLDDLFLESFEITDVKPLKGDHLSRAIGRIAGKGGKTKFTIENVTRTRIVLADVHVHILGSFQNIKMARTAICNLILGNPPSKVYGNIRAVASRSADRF
# Sequence of Myo6 (Q64331 whole entry): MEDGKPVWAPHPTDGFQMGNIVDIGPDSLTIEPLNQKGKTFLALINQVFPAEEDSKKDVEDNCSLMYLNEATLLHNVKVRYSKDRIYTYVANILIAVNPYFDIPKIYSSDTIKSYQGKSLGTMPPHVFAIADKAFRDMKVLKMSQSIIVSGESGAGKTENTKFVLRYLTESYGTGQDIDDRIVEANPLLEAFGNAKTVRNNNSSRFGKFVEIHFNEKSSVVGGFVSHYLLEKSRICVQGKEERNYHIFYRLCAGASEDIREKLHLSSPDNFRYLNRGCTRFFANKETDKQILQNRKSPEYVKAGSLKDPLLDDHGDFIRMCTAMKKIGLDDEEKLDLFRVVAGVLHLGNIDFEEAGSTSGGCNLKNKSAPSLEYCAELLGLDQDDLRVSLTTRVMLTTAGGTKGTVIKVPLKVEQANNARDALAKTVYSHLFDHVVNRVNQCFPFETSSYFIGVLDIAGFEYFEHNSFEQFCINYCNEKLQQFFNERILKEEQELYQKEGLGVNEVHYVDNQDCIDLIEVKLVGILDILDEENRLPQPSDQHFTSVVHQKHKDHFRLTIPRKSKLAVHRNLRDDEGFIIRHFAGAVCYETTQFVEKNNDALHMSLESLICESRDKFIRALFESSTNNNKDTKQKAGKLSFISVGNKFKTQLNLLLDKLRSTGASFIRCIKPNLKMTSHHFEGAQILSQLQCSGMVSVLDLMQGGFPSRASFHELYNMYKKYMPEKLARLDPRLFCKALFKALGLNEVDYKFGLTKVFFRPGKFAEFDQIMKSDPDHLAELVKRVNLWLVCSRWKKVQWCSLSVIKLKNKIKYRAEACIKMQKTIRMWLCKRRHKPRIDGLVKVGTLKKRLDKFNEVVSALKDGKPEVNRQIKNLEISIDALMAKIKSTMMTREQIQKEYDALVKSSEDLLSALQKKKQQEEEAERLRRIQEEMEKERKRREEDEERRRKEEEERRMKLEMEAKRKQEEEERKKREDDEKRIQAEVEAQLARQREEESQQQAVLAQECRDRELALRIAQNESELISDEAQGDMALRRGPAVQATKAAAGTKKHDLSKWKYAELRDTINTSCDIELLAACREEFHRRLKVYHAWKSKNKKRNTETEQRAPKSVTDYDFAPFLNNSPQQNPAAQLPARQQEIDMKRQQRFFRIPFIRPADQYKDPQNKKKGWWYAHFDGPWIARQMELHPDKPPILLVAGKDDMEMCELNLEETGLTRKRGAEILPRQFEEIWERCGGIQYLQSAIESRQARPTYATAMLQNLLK
# Sequence of Tpm4 (Q6IRU2 2-248 limits assumed): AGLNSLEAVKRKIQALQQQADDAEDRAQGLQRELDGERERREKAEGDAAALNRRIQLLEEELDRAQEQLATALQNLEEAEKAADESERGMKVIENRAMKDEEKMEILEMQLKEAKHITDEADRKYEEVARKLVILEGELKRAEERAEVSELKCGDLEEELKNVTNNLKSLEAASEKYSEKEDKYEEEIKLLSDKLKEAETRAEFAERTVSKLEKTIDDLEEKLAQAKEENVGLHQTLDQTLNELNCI
# Sequence of Dhx30 (Q99PU8 whole entry): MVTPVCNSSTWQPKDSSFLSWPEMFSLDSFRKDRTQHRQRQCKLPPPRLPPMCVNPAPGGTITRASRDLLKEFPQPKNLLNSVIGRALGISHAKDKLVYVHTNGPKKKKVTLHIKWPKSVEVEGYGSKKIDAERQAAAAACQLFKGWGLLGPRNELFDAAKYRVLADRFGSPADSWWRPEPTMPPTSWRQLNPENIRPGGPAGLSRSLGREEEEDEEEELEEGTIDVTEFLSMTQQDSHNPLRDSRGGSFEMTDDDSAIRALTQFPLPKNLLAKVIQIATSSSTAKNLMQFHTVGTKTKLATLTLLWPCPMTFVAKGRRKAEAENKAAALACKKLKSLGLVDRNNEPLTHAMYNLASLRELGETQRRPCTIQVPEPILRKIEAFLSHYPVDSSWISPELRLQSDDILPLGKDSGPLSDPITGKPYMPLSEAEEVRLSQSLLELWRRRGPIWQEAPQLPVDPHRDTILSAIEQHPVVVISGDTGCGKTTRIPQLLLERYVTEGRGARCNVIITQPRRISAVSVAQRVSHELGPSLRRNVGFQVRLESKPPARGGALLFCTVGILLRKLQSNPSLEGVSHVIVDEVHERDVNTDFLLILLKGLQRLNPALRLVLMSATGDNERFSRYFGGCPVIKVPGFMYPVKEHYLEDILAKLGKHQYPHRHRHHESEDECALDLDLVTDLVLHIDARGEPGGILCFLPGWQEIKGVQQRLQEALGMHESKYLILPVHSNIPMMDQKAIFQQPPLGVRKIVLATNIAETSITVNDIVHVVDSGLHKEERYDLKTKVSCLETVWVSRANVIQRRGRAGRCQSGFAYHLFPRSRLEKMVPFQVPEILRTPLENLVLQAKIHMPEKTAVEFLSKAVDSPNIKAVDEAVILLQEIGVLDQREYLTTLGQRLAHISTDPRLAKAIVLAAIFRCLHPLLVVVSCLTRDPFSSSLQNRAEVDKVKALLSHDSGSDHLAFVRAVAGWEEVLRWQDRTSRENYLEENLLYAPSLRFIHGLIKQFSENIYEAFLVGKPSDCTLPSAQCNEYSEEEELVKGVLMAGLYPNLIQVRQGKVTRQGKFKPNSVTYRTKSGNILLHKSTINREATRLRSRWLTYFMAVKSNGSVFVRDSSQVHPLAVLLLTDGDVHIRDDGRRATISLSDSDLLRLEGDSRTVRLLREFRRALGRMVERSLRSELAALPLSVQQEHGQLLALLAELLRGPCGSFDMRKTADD
substance,measurement,setting,value
TOX (from UniProt Q66JW3 1-526),Abundance,Snrpb2,7.46e-05
same,MiST Score,Snrpb2,0.858
same,Reproducibility,Snrpb2,0.558
same,Specificity,Snrpb2,1
same,Abundance,Eif5b,7.46e-06
same,MiST Score,Eif5b,0.878
same,Reproducibility,Eif5b,0.771
same,Specificity,Eif5b,0.933
same,Abundance,Rif1,1.07e-07
same,MiST Score,Rif1,0.874
same,Reproducibility,Rif1,0.611
same,Specificity,Rif1,1
same,Abundance,Ash2l,4.44e-06
same,MiST Score,Ash2l,0.879
same,Reproducibility,Ash2l,0.629
same,Specificity,Ash2l,1
same,Abundance,Terf2ip,2.33e-05
same,MiST Score,Terf2ip,0.869
same,Reproducibility,Terf2ip,0.595
same,Specificity,Terf2ip,1
same,Abundance,Hs2st1,6.47e-06
same,MiST Score,Hs2st1,0.879
same,Reproducibility,Hs2st1,0.628
same,Specificity,Hs2st1,1
same,Abundance,Cdk9,1.6e-05
same,MiST Score,Cdk9,0.865
same,Reproducibility,Cdk9,0.581
same,Specificity,Cdk9,1
same,Abundance,Dlgap5,6.65e-06
same,MiST Score,Dlgap5,0.876
same,Reproducibility,Dlgap5,0.81
same,Specificity,Dlgap5,0.914
same,Abundance,Aldh18a1,9.69e-06
same,MiST Score,Aldh18a1,0.887
same,Reproducibility,Aldh18a1,0.702
same,Specificity,Aldh18a1,0.979
same,Abundance,Cd2ap,5.85e-07
same,MiST Score,Cd2ap,0.879
same,Reproducibility,Cd2ap,0.628
same,Specificity,Cd2ap,1
same,Abundance,Metap2,1.54e-05
same,MiST Score,Metap2,0.881
same,Reproducibility,Metap2,0.927
same,Specificity,Metap2,0.868
same,Abundance,Myo6,5.25e-07
same,MiST Score,Myo6,0.88
same,Reproducibility,Myo6,0.63
same,Specificity,Myo6,1
same,Abundance,Safb; Safb2; mKIAA0138,3.18e-06
same,MiST Score,Safb; Safb2; mKIAA0138,0.873
same,Reproducibility,Safb; Safb2; mKIAA0138,0.609
same,Specificity,Safb; Safb2; mKIAA0138,1
same,Abundance,Kifc5b; Kifc1,1.73e-06
same,MiST Score,Kifc5b; Kifc1,0.88
same,Reproducibility,Kifc5b; Kifc1,0.63
same,Specificity,Kifc5b; Kifc1,1
same,Abundance,Dap3,2.69e-06
same,MiST Score,Dap3,0.859
same,Reproducibility,Dap3,0.561
same,Specificity,Dap3,1
same,Abundance,Ptcd3,1.85e-06
same,MiST Score,Ptcd3,0.88
same,Reproducibility,Ptcd3,0.631
same,Specificity,Ptcd3,1
same,Abundance,Snx9,5.29e-06
same,MiST Score,Snx9,0.877
same,Reproducibility,Snx9,0.621
same,Specificity,Snx9,1
same,Abundance,Ppp1r10,1.37e-05
same,MiST Score,Ppp1r10,0.868
same,Reproducibility,Ppp1r10,0.65
same,Specificity,Ppp1r10,0.974
same,Abundance,Rrp1b,4.86e-06
same,MiST Score,Rrp1b,0.875
same,Reproducibility,Rrp1b,0.955
same,Specificity,Rrp1b,0.847
same,Abundance,Dhx30,2.07e-06
same,MiST Score,Dhx30,0.89
same,Reproducibility,Dhx30,0.892
same,Specificity,Dhx30,0.897
same,Abundance,Sltm,2.12e-06
same,MiST Score,Sltm,0.864
same,Reproducibility,Sltm,0.988
same,Specificity,Sltm,0.816
same,Abundance,Rpl36a,0.000923
same,MiST Score,Rpl36a,0.895
same,Reproducibility,Rpl36a,0.679
same,Specificity,Rpl36a,1
same,Abundance,Tpm4,0.000138
same,MiST Score,Tpm4,0.859
same,Reproducibility,Tpm4,0.979
same,Specificity,Tpm4,0.812
same,Abundance,Pno1,0.000116
same,MiST Score,Pno1,0.884
same,Reproducibility,Pno1,0.988
same,Specificity,Pno1,0.845
same,Abundance,Cdc23,6.55e-06
same,MiST Score,Cdc23,0.872
same,Reproducibility,Cdc23,0.758
same,Specificity,Cdc23,0.931

# Reference: patent publication US20210071139A1
